From patent US8450054B2, “Modified Luciola cruciata luciferase gene and protein” (Marker Gene Technologies, Inc., priority 2008, dated 2013)

Columns and labels:
[1] = test system: NIH 3T3 cells; assay: Luciferase expression levels in transfected mammalian cells (luminescence of lysates); assay type: cell-based, murine; details: mammalian cell systems
Experimental: NIH 3T3 cells (murine […] fibroblasts) were grown to 80% confluence in 100 mm tissue culture plates. Cells were transfected with either pDC57 or pDC99 using Lipofectamine and PLUS reagents (Invitrogen).
(§1) Transfected NIH 3T3 cells prepared in Example 4 were lysed using a lysis buffer comprised of 25 mM Tris-phosphate (pH 7.8), containing 10% glycerol, 1% Triton X-100, 1 mg/ml BSA, 2 mM EGTA and 2 mM DTT. Cells were washed with 1× Phosphate Buffered Saline, and lysis buffer (1 mL) was added to surface of plate. Plate was incubated for 30 mins, and lysate was collected. Additionally, NIH 3T3 cells were transfected with pSV40-GL3, a construct containing wild type luciferase from Photinus pyralis, as per the method in Example 4 and lysed using the above method. As a negative control, untransfected NIH 3T3 cells were also lysed by the above method.
(§2) Cell lysates were diluted using lysis buffer, and added in triplicate to wells of a solid white 96-well plate (Costar). Added to cell lysates was a reagent containing 1 mM D-luciferin and 2 mM ATP in a buffer comprised of 25 mM Glycylglycine, 15 mM MgSO4, 4 mM EDTA, 15 mM Potassium phosphate pH 7.8, 1 mM DTT, and 1 mM Coenzyme A.
(§3) Luminescence was recorded using a Perkin-Elmer HTS7000 Plus Bio Assay Reader (200 ms integration time).

[2] = Thermal stability of modified Luciola cruciata luciferase protein versus wild type protein (residual luminescence of cell lysates after incubation); details: for stability of the protein relative to wild type: 37° C.
Experimental: as §1, §2, §3
Cell lysates from NIH 3T3 cells transfected with pDC99 and pSV40-GL3 (transfected according to method in Example 4), as well as untransfected cells were prepared as described in Example 5a. Luminescence of each sample was recorded as described in Example 5a to obtain a baseline value of enzyme activity. Portions of each sample were then incubated in water baths at 37° C., 42° C., and 55° C. A portion of each sample was also incubated at ambient room temperature (25° C.). At 1 hour and 2 hour intervals, aliquots of each temperature-incubation were removed and assayed for activity using the method described in Example 5a.

B1: modified luciferase: Luciola cruciata luciferase with Ser to Tyr change at position 286, amino acid sequence SEQ ID NO:4, encoded by codon optimized gene SEQ ID NO:3 (protein, listed as Luciola cruciata)
chain: MENMENDENIVVGPKPFYPIEEGSAGTQLRKYMERYAKLGAIAFTNAVTGVDYSYAEYLEKSCCLGKALQNYGLVVDGRIALCSENCEEFFIPVIAGLFIGVGVAPTNEIYTLRELVHSLGISKPTIVFSSKKGLDKVITVQKTVTTIKTIVILDSKVDYRGYQCLDTFIKRNTPPGFQASSFKTVEVDRKEQVALIMNSSGSTGLPKGVQLTHENTVTRFSHARDPIYGNQVSPGTAVLTVVPFHHGFGMFTTLGYLICGFRVVMLTKFDEETFLKTLQDYKCTYVILVPTLFAILNKSELLNKYDLSNLVEIASGGAPLSKEVGEAVARRFNLPGVRQGYGLTETTSAIIITPEGDDKPGASGKVVPLFKAKVIDLDTKKSLGPNRRGEVCVKGPMLMKGYVNNPEATKELIDEEGWLHTGDIGYYDEEKHFFIVDRLKSLIKYKGYQVPPAELESVLLQHPSIFDAGVAGVPDPVAGELPGAVVVLESGKNMTEKEVMDYVASQVSNAKRLRGGVRFVDEVPKGLTGKIDGRAIREILKKPVAKM
In the case of B1, the “expression level compared to native luciferase” value [1] is reported as “higher expression levels”, the “stability of the protein relative to wild type” value ([2]; after 1 hour) is reported as greater than 100 fold and the “stability of the protein relative to wild type” value ([2]; after 2 hours) is reported as greater than 1000 fold. The “thermostability compared with wild-type protein” value ([2]; room temperature) was “greater thermostability”.
